From a protein production outcome set (Wang et al. 2014) come the findings set out here.

The nature of this data set: label from the status in PepcDB records.
As for “MLDNAIPQGFEDAVELRRKNRETVVKYMNTKGQDRLRRHELFVEDGCGGLWTTDTGSPIVIRGKDKLAEHAVWSLKCFPDWEWYNIKVFETDDPNHFWVECDGHGKILFPGYPEGYYENHFLHSFELDDGKIKRNREFMNVFQQLRALSIPVPQIKREGIPT”, the protein production result is listed as “not failed”.
To “MLDPARSYDLIGDVHGCALTLEHLLDRLGYHKQAGVWRHPSRMAVFLGDIIDRGPRIRESLHIVHDMVEAGQALCIMGNHEFNALGWSTPAAEGSGKQFVREHTPRHARLIHETLTQFEQHPGDWHDFLQWFYELPLFVDAGRFRVVHACWDAGLIAPLRQQYPNGCIDREFLQSAAVPDSFACTAFDRLLRGTDMRLPHGLTMTSGDGLTRAFFRTKFWEDDPQTYGDIVFQPDALPEPVARTPLSPAEKNSLLRYGAEEPMLFVGHYWRSGKPAPIRPNLACLDYSAVLYGKLAAYRLDQETRLDPNKFVWVDVERPEVVRLEHHHHHH” belongs “failed”.
Next, “MLDPHSRMPLYHQIESHLREVIRSGKWQAGEAIPPERLLIEQYGVSRITIRQALANLVAAGLLYRKHGRGTFVAGAKERPITESLANLTGHLEELQLRGLDPRVRVLALETRPMIAEVAEALQRSPGAEGWYLYRIVTVEQQPLMLSTVWLPCDLGVELNEELLKQHGMALLLTHNGIAPLRGSQRIGAMSAGPEEARLLGVRAGEAVLRVSRVIHGAADRPLVWFRTLYRSDRYEYEVELKRGRPHA”: “failed”; “MLDRLLGRVHDTKHAAPILRGYLWWGLLLRAVLLLALGTLLVVEGNVLAEWLLTVRPPALPQEDVEELTAVSYTVIVVLLMVGTGARWQLLRRLEAAEAVPESAPSSAEEAPPLGR”: “failed”.
With “MLDSFKSALQQFAASIRFKFKSLRSYKYVPQIDSRDCGVAALASIAKYYGSDYSLAHLRELAKTSKEGTTALGIVEAAKKMKFETRAIKADMSLFDVEDIPYPFIVHIVKDGKLQHYYVVYGQEKEKVIIGDPDPTVKIATPVQIAICRRMDRCCYFSGT”, the protein production result is “failed”.
Next, “MLDSHLHPRLKPLLNAVAGALDRPGISPDGLTLVGFAIGVLALPFLALGWYGAALAAILLNRLLDGLDGALARRRGLTDAGGFLDIALDFLFYALVPFGFILADPLNNALAGGWLLFAFIGTGSSFLAFAALAARHQIANPGYAHKSLYYLGGLTEGTETILLFVLGCLFPAHFAWLAWLFGALCWLTTATRICSGYQTLKRVTTTA”: “failed”; “MLDVAIIGGGPAGLSAGLYATRGGLKNVVMFEKGMPGGQITSSSEIENYPGVAQVMDGISFMAPWSEQCMRFGLKHEMVGVEQILKNSDGSFTIKLEGGKTELAKAVIVCTGSAPKKAGFKGEDEFFGKGVSTCATCDGFFYKNKEVAVLGGGDTALEEALYLANICSKIYLIHRRDEFRAAPSTVEKVKKNEKIELITSASVDEVYGDKMGVAGVKVKLKDGSIRDLNVPGIFTFVGLNVRNEILKQDDSKFLCNMEEGGQVSVDLKMQTSVAGLFAAGDLRKDAPKQVICAAGDGAVAALSAMAYIESLH”: “not failed”; “MLEAPLLSICIPAYNRPNWLQRGLESIAVGEGSDIEIVITDDSDTDQGQAIASEVLKNWSGSWCYEHHQQPLGMAQNWNRAIQWATGQYVMVLHDDDFFLPQGLGLLVNKLRQLGSSSPVLLFGVRVVDAQERVVKRQGFRQDKLLPPHDALIRLFSDSSFVRFPAMVIRRDLFTEVGYFNPDWREPCDLEMWMRLFARYGVYCCREATVAYRVHGQALTMGSFHGETVNILLRLFGELEKLNILTTRDIEFCKGLFFHQYILAGAWRQLRRRRWREFKQVMGLFDLPELKSLSCPVKWRFLRGLFSLTLEHHHHHH”: “failed”.
To “MLEGESAPEPVIEISKLELTDYVKCNLPPEVIKYYESELELLTQEIKSEKKNPAFAYCRRGAIYRKLGKLQSAMNDLQETIFVEPLFLNAYWHRHFIYLFQDKINDALDDLNFITKYNKNHAEAYLSKAEIFREKNDITLAILNYSQAIKCRPKDASLYFKRGEMYEKTNKVLAIDDFSKGLDQAVTHVTESAQIFPPLLGQNDCIYYDPKRSDALWKRGMFYFENENWTGAVYDFTSLLKLEPHNSQARTNRGRAYFKRNLFKQATEDFSAAIHSDPNNWLALYYRACLFRKCSPQRALQDYSVSVSVSVLCSPGFKLFIYKVNGMSEFTTSFHEFVNCDCHVLINDGYDNLNCFLHRGILYTELKFWMLAVCDFETVVTLERIKAIISSRGQYLLMMKSYDLAKLTIFQVAEMNKGVIELSPIQEALIYSFCENHDKAIHVLEGVIANKPDISTYALLAKAQMKAKRIKESVRLFKKALELYTFSDKGPAATSVSADCLYNLGLCYMEEGNFQMNYKLAITDLTTAVGMDKNSYTAFYNRALCYTKIKKHEMALRDYGIVLLLQAGETIALNTLVNRGLIYTELEQYGFALEDFKEASMISETSVKLCQATAMCHHRIKEFQGAVEFFTRAIKINPRYLDAYIGRGNSYMEYEQNKAMIQAQKDFLRALHLDPSNLKARISLGYNLQAQGKFQKAWQHFTIGIEANPKNYLAYEGRAVVCLQMSNYFAAMQDINCAIKINSTAEFLTNRGVIHEFMGQQQNAMADYQAAISLDPNYSLAYFNAGNIYLHHRQFSQATDYFSTALKLNPENECALMNRAVTNSVLKKYEEAEKDFSHAMELCPHWAALYFNRASFYVYLKKYELAEEDLDRALSLKPDDAIMYNLRAQVRGKIGLIEEAMCDYNQALDLEEYSKAM” belongs “failed”; to “MLEHFRAGWAKVMNPIADALLRAHVTPDVVTWIGTIGAVLMALICFPQGWLWQGPWLVTLFIFSDSLDGNMARKLGRHSQWGSFLDSTLDRFGDAAIFTGVALYFAGPGNSVLWTAMACAALVFGMATSYVRAKAESLALEAKVGIATRADRLLVSLVAIEITGLARVGAFPHWCVVALPIALCYLTLAGAITVVQRMVAVRRACES”, “failed”; to “MLEKELSFADLSISLSELYEAMGYADAVPDEAVEKEVRGVLGRVEAVTSPRFCFFISGGELDESKDSLSVGDTCFSIGKIITRQLRGSESFAFFAATAGTGFERFQHTLQQEGDMVKVYIADAIGSVIAEKTADCMEIALDEYIRDRGWRHTNRFSPGYCGWHVSEQKKLFPLFPSAEPCGIRLTDSGLMLPIKSVSGVIGLGDGVRKLEYTCGLCTYDRCYRRKQRGLEHHHHHH”, “not failed”.
Take “MLEKLIERVLFATRWLLAPLCIAMSLVLVVLGYVFMKELWHMLSHLNTISETDLVLSALGLVDLLFMAGLVLMVLLASYESFVSKLDKVDASEITWLKHTDFNALKLKVSLSIVAISAIFLLKRYMSLEDVLSSIPKDTPLSHNPIFWQVVIHLVFVCSALLAAVTNNIAFSQNKAH”: the protein production result is given as “failed”.
To “MLEKVFQEITNKRKFFASSSTGEQFENQFRNELKKHFSEINGDLTEELSHIEEKPNKEIKTTFNQLKKQVLEKNHPHTLKNPFSNLTSHFLYQPFGSQNYPDFLVFIFDYVVGIEIKFSKNDKGEKNLQTSRPMWNSNLPKPNAIYVYGVANANITFFKGSDILSYETREVLLKYFDILDKDERSLKNALKDLENPFGFAPYIRKAYEHKRNFLTTTRLKASFRPTTF” belongs “failed”; to “MLENIRIVLIETSHSGNIGSAARAMKTMGLTQLCLVSPKSVDEQSYALSAGAENIVKNARVVDSFDEAVDDCPLVIGTSARLRHLQNTLIEPRECAEKVVAYKGKIAIVFGRERIGLTNEELLKCHYHLNIPANPDYSSLNLAMAVQLVSYELRMAFLVQNNKKNSLSLIEKNYPTTDQLAYFFDYTERIYQSLGFIQNQGVMRKLKRLYYRAKLEKNELNILNGMLSAVEKRIDLTKEDN”, “not failed”.
Next, “MLEQGLDYVVKLAKSKKQILDANPMQYFIRAALAGIYIGFIIVLCFKLGNFFHIADSPATYLAASMFFGIALVLIIYGGAELFTGNTMYFTVATLRKETTISDTLRNWVACYAGNLAGALFFALLFYATGIFEAIDHGHLMNKVVEGKMNTPTMQLFFKAILCNWLVCLACFLPSQVKGDTAKIMIMMLLVFTFFLSGYEHSIANLSLFALSLVSPHPETISFAGAIHNLIPVTIGNIIGGSVFVGMVYHYLTKKVPDVKQEETELVAAQQEEIIPLQAHMKH”: “failed”.
